Test results from patent publication US20230192903A1 (published 2023).
Positions count from the first letter of the chain named. In names and notes the source's numbering stands.

B1: bispecific antibody CS9 (bispecific antibody, human IgG1, kappa)
light: DIVMTQSPSSLTVTAGEKVTMSCKSSQSLLNSGNQKNYLTWYQQKPGQPPKLLIYWASTRESGVPDRFTGSGSGTDFTLTISSVQAEDLAVYYCQNDYSYPFTFGSGTKLEIKRTVAAPSVFIFPPSDEQLKSGTASVVCLLNNFYPREAKVQWKVDNALQSGNSQESVTEQDSKDSTYSLSSTLTLSKADYEKHKVYACEVTHQGLSSPVTKSFNRGEC
heavy 1: QVQLQQPGAELVRPGASVKLSCKASGYTFTSYWINWVKQRPGQGLEWIGNIYPSDSYTNYNQKFKDKATLTVDKSSSTAYMQLSSPTSEDSAVYYCTRSWRGNSFDYWGQGTTLTVSSASTKGPSVFPLAPSSKSTSGGTAALGCLVKDYFPEPVTVSWNSGALTSGVHTFPAVLQSSGLYSLSSVVTVPSSSLGTQTYICNVNHKPSNTKVDKKVEPKSCDKTHTCPPCPAPPVAGPSVFLFPPKPKDTLMISRTPEVTCVVVDVSHEAPEVQFNWYVDGVEVHNAKTKPREEQFNSTFRVVSVLTVVHQDWLNGKEYKCKVSNKGLPAPIEKTISKTKGQPREPQVYTLPPCRDELTKNQVSLWCLVKGFYPSDIAVEWESNGQPENNYKTTPPVLDSDGSFFLYSKLTVDKSRWQQGNVFSCSVMHEALHNHYTQKSLSLSPGK
heavy 2: not shown
notes: CSBODY structure: two 175D10 Fab arms; second heavy chain (first heavy entry) and first heavy chain with anti-CD3 scFv (L2K) between CH1 and Fc2
B2: bispecific antibody Y6 (bispecific antibody, human IgG1, kappa)
light: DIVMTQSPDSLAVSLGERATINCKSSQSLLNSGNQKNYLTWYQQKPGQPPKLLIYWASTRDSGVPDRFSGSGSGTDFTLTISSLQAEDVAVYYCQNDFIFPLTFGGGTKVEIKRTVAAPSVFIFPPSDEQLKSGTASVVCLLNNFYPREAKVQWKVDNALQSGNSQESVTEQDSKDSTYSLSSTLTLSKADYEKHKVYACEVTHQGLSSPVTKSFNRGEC
heavy: QVQLQESGPGLVKPSETLSLTCTVSGFSLTRYGVSWIRQPPGKGLEWIGVIWGEGNTNYNPSLKSRVTISKDSSKSQVSLKLSSVTAADTAVYYCARVNFGNALDYWGQGTLVTVSSASTKGPSVFPLAPSSKSTSGGTAALGCLVKDYFPEPVTVSWNSGALTSGVHTFPAVLQSSGLYSLSSVVTVPSSSLGTQTYICNVNHKPSNTKVDKKVEPKSCDKTHTCPPCPAPPVAGPSVFLFPPKPKDTLMISRTPEVTCVVVDVSHEAPEVQFNWYVDGVEVHNAKTKPREEQFNSTFRVVSVLTVVHQDWLNGKEYKCKVSNKGLPAPIEKTISKTKGQPREPQVYTLPPCRDELTKNQVSLWCLVKGFYPSDIAVEWESNGQPENNYKTTPPVLDSDGSFFLYSKLTVDKSRWQQGNVFSCSVMHEALHNHYTQKSLSLSPGK
chain: QVQLVESGGGVVQPGRSLRLSCAASGFTFSTYAMNWVRQAPGKGLEWVARIRSKYNNYATYYADSVKDRFTISRDDSKNTLYLQMNSLRAEDTAVYYCARHGNFGNSYVSWFAYWGQGTLVTVSSGGGGSGGGGSGGGGSQTVVTQEPSLTVSPGGTVTLTCRSSTGAVTTSNYANWVQQKPGQAPRGLIGGTNKRAPGVPARFSGSLLGGKAALTLSGVQPEDEAEYYCALWYSNLWVFGGGTKVEIKGRGRGSDKTHTCPPCPAPPVAGPSVFLFPPKPKDTLMISRTPEVTCVVVDVSHEAPEVQFNWYVDGVEVHNAKTKPREEQFNSTFRVVSVLTVVHQDWLNGKEYKCKVSNKGLPAPIEKTISKTKGQPREPQVCTLPPSRDELTKNQVSLSCAVKGFYPSDIAVEWESNGQPENNYKTTPPVLDSDGSFFLVSKLTVDKSRWQQGNVFSCSVMHEALHNHYTQKSLSLSPGK
notes: YBODY structure: anti-CLDN18.2 Fab arm (2C6.9) and second monomer anti-CD3 scFv (2a5)-Fc
B3: bispecific antibody CS5 (bispecific antibody, human IgG1, kappa)
light: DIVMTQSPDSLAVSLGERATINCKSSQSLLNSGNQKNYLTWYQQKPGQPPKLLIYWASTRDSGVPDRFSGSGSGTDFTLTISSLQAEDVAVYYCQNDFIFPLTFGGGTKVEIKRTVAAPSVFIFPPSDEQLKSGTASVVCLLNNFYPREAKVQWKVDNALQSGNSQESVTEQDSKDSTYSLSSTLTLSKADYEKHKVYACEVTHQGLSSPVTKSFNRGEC
heavy 1: B2 heavy
heavy 2: QVQLQESGPGLVKPSETLSLTCTVSGFSLTRYGVSWIRQPPGKGLEWIGVIWGEGNTNYNPSLKSRVTISKDSSKSQVSLKLSSVTAADTAVYYCARVNFGNALDYWGQGTLVTVSSASTKGPSVFPLAPSSKSTSGGTAALGCLVKDYFPEPVTVSWNSGALTSGVHTFPAVLQSSGLYSLSSVVTVPSSSLGTQTYICNVNHKPSNTKVDKKVEPKSCDKTHTAPAPAPAPAPAPAPAPQVQLVESGGGVVQPGRSLRLSCAASGFTFSTYAMNWVRQAPGKGLEWVARIRSKYNNYATYYADSVKDRFTISRDDSKNTLYLQMNSLRAEDTAVYYCARHGNFGNSYVSWAAYWGQGTLVTVSSGGGGSGGGGSGGGGSQTVVTQEPSLTVSPGGTVTLTCRSSTGAVTTSNYANWFQQKPGQAPRGLIGGTNKRAPGVPARFSGSLLGGKAALTLSGVQPEDEAEYYCALWYSNLWVFGGGTKVEIKGGGGSDKTHTCPPCPAPPVAGPSVFLFPPKPKDTLMISRTPEVTCVVVDVSHEAPEVQFNWYVDGVEVHNAKTKPREEQFNSTFRVVSVLTVVHQDWLNGKEYKCKVSNKGLPAPIEKTISKTKGQPREPQVCTLPPSRDELTKNQVSLSCAVKGFYPSDIAVEWESNGQPENNYKTTPPVLDSDGSFFLVSKLTVDKSRWQQGNVFSCSVMHEALHNHYTQKSLSLSPGK
notes: CSBODY structure: two 2C6.9 Fab arms; second heavy chain (first heavy entry) and first heavy chain with anti-CD3 scFv (2a5ga) between CH1 and Fc2
B4: bispecific antibody Y8 (bispecific antibody, human IgG1, kappa)
light: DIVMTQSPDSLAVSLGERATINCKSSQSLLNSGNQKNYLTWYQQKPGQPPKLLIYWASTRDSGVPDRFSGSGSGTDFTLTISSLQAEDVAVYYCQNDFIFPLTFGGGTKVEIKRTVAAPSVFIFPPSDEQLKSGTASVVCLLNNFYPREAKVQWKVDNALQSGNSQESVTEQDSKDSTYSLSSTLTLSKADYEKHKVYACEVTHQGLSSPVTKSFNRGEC
heavy: B2 heavy
chain: not shown
notes: YBODY structure: anti-CLDN18.2 Fab arm (2C6.9) and second monomer anti-CD3 scFv (L2K)-Fc
B5: bispecific antibody CS2 (bispecific antibody, human IgG1, kappa)
light: B1 light
heavy 1: B1 heavy 1
heavy 2: QVQLQQPGAELVRPGASVKLSCKASGYTFTSYWINWVKQRPGQGLEWIGNIYPSDSYTNYNQKFKDKATLTVDKSSSTAYMQLSSPTSEDSAVYYCTRSWRGNSFDYWGQGTTLTVSSASTKGPSVFPLAPSSKSTSGGTAALGCLVKDYFPEPVTVSWNSGALTSGVHTFPAVLQSSGLYSLSSVVTVPSSSLGTQTYICNVNHKPSNTKVDKKVEPKSCDKTHTAPAPAPAPAPAPAPAPQVQLVESGGGVVQPGRSLRLSCAASGFTFSTYAMNWVRQAPGKGLEWVARIRSKYNNYATYYADSVKDRFTISRDDSKNTLYLQMNSLRAEDTAVYYCARHGNFGNSYVSWFAYWGQGTLVTVSSGGGGSGGGGSGGGGSQTVVTQEPSLTVSPGGTVTLTCRSSTGAVTTSNYANWVQQKPGQAPRGLIGGTNKRAPGVPARFSGSLLGGKAALTLSGVQPEDEAEYYCALWYSNLWVFGGGTKVEIKGGGGSDKTHTCPPCPAPPVAGPSVFLFPPKPKDTLMISRTPEVTCVVVDVSHEAPEVQFNWYVDGVEVHNAKTKPREEQFNSTFRVVSVLTVVHQDWLNGKEYKCKVSNKGLPAPIEKTISKTKGQPREPQVCTLPPSRDELTKNQVSLSCAVKGFYPSDIAVEWESNGQPENNYKTTPPVLDSDGSFFLVSKLTVDKSRWQQGNVFSCSVMHEALHNHYTQKSLSLSPGK
notes: CSBODY structure: two 175D10 Fab arms; second heavy chain (first heavy entry) and first heavy chain with anti-CD3 scFv (2a5) between CH1 and Fc2
B6: Anti-CLDN18.2 monoclonal antibody 2C6.9 (antibody, human IgG1, kappa, V domains shown)
VH: QVQLQESGPGLVKPSETLSLTCTVSGFSLTRYGVSWIRQPPGKGLEWIGVIWGEGNTNYNPSLKSRVTISKDSSKSQVSLKLSSVTAADTAVYYCARVNFGNALDYWGQGTLVTVSS
VL: DIVMTQSPDSLAVSLGERATINCKSSQSLLNSGNQKNYLTWYQQKPGQPPKLLIYWASTRDSGVPDRFSGSGSGTDFTLTISSLQAEDVAVYYCQNDFIFPLTFGGGTKVEIKR
notes: prepared by Wuhan YZY Biopharma
B7: anti-CLDN18.2 monoclonal antibody 1E9.2 (antibody, human IgG1, kappa, V domains shown)
VH: EVQLVESGGGLVKPGGSLRLSCAASGFSFSNSAMSWVRQAPGKGLEWVSTISSGDSYTYYADSVKGRFTISRDNAKNSLYLQMNSLRAEDTAVYYCARQGYGNALDYWGQGTLVTVSS
VL: B6 VL with A57S, D61E, V89F, F98Y, I99Y, F100Y
notes: as for B6
B8: IMAB362 monoclonal antibody (antibody, human IgG1, kappa, V domains shown)
VH: QVQLQQPGAELVRPGASVKLSCKASGYTFTSYWINWVKQRPGQGLEWIGNIYPSDSYTNYNQKFKDKATLTVDKSSSTAYMQLSSPTSEDSAVYYCTRSWRGNSFDYWGQGTTLTVSS
VL: DIVMTQSPSSLTVTAGEKVTMSCKSSQSLLNSGNQKNYLTWYQQKPGQPPKLLIYWASTRESGVPDRFTGSGSGTDFTLTISSVQAEDLAVYYCQNDYSYPFTFGSGTKLEIKR
notes: prepared by Wuhan YZY Biopharma; also called Anti-CLDN18.2 monoclonal antibody IMAB362
B9: bispecific antibody Y1 (bispecific antibody, human IgG1, kappa)
light: B1 light
heavy: B1 heavy 1
chain: B2 chain with F112A, V178F
notes: YBODY structure: anti-CLDN18.2 Fab arm (175D10) and second monomer anti-CD3 scFv (2a5ga)-Fc

The binders below were run against Human CLDN18.2 (human) (assay: cell-based or functional assay).

With B1 as the binder, how does the “EC50 value for killing effect on NUGC4-hCLDN18.2 cells” value read?
Its value is less than 0.01 nM.

Molecular target: Human CLDN18.2 (human)
Test: cell-based or functional assay
Remark: another data set of the same source

Which “EC50 (pM), in vitro killing by hPBMC, NUGC4-hCLDN18.2 cells” value (from here on “EC50 (pM) … NUGC4-hCLDN18.2 cells”) does the source give for B2 here?
Its value is 1.07 pM.

What about the “EC50 (pM), in vitro killing by hPBMC, NUGC4 cells” value of the same binder?
Its value is 7.99 pM.

What does the source list for B3?
EC50 (pM), in vitro killing by hPBMC, NUGC4-hCLDN18.2 cells: 132 pM; EC50 (pM), in vitro killing by hPBMC, NUGC4 cells: 433 pM

For B4, which “EC50 (pM) … NUGC4-hCLDN18.2 cells” value is on record?
The value was 4.09 pM.

And the “EC50 (pM), in vitro killing by hPBMC, NUGC4 cells” value?
Its value is 57.8 pM.

How did the “EC50 (pM) … NUGC4-hCLDN18.2 cells” value turn out when B5 was run?
The value was 2.17 pM.

Molecular target: Human CLDN18.2 (human)
Test: cell-based or functional assay
Remark: another data set of the same source

Which “Induction of expression of CD25 EC50 (pM), NUGC4” value does the source give for B2 here?
The value was 17.2 pM.

What about the “Induction of expression of CD25 EC50 (pM), NUGC4-hCLDN18.2” value of the same binder?
Its value is 2.32 pM.

What about the “Induction of expression of CD69 EC50 (pM), NUGC4” value of the same binder?
Its value is 4.87 pM.

What about the “Induction of expression of CD69 EC50 (pM), NUGC4-hCLDN18.2” value of the same binder?
Its value is 0.592 pM.

Which “Induction of expression of CD25 EC50 (pM), NUGC4” value does the source give for B3 here?
The value was 481 pM.

What about the “Induction of expression of CD25 EC50 (pM), NUGC4-hCLDN18.2” value of the same binder?
The value was 142 pM.

What about the “Induction of expression of CD69 EC50 (pM), NUGC4” value of the same binder?
Its value is 141 pM.

And the “Induction of expression of CD69 EC50 (pM), NUGC4-hCLDN18.2” value?
The value was 70.5 pM.

B4 was tested. Which “Induction of expression of CD25 EC50 (pM), NUGC4” value did it give?
Its value is 182 pM.

And the “Induction of expression of CD25 EC50 (pM), NUGC4-hCLDN18.2” value?
Its value is 16.5 pM.

What about the “Induction of expression of CD69 EC50 (pM), NUGC4” value of the same binder?
The value was 33.3 pM.

And the “Induction of expression of CD69 EC50 (pM), NUGC4-hCLDN18.2” value?
Its value is 2.98 pM.

With B5 as the binder, how does the “Induction of expression of CD25 EC50 (pM), NUGC4” value read?
Its value is 216 pM.

And the “Induction of expression of CD25 EC50 (pM), NUGC4-hCLDN18.2” value?
The value was 1.21 pM.

And the “Induction of expression of CD69 EC50 (pM), NUGC4” value?
The value was 29.5 pM.

What about the “Induction of expression of CD69 EC50 (pM), NUGC4-hCLDN18.2” value of the same binder?
The value was 0.389 pM.

These binders were tested against T1, Human CLDN18.1 (human, UniProt P56856 1-261) (assay: flow cytometry, 293T-hCLDN18.1 cells).
T1 construct: also called hCLDN18.1

Does B1 bind?
Result: no binding

Does B6 bind?
Result: no binding (tested: 1000 nM)

Does B7 bind?
Result: no binding (tested: 1000 nM)

What follows are binders tested against T2, Human CLDN18.2 (human) (assay: flow cytometry, NUGC4-hCLDN18.2 cells).
T2 construct: the cell line is named under assay; also called hCLDN18.2; human CLDN18.2 antigen
Description: (§1) NUGC4 and NUGC4-hCLDN18.2 cells were cultured, digested with pancreatin and centrifuged to collect cells. The cells were collected and resuspended in buffer (PBS+1% FBS) at 1×10⁴ cells/well in a 96-well plate at 100 μL per well. Then the mixture was centrifuged at 350×g for 5 min, and the supernatant was removed.

Which EC50 does the source give for B1 here?
Its EC50 is less than 50 nM.

With B8 as the binder, how does the EC50 read?
Its EC50 is 10.8 nM.

Molecular target: T2, Human CLDN18.2
Test: flow cytometry, NUGC4-hCLDN18.2 cells
Remark: another data set of the same source
Description: as §1

With B2 as the binder, how does the EC50 read?
Its EC50 is 45.9 nM.

Which EC50 does the source give for B3 here?
Its EC50 is 18.2 nM.

For B4, which EC50 is on record?
Its EC50 is 46.9 nM.

For B5, which EC50 is on record?
The EC50 was 36 nM.

Each binder was assayed against T2, Human CLDN18.2 (assay: flow cytometry, NUGC4 cells (endogenous CLDN18.2)).
Description: as §1

Which EC50 does the source give for B2 here?
The EC50 was 184 nM.

Which EC50 does the source give for B3 here?
Its EC50 is 25.7 nM.

With B4 as the binder, how does the EC50 read?
Its EC50 is 75.1 nM.

Each binder was assayed against T3, human CD3 antigen (human, UniProt P07766 23-126) (assay: SPR (Biacore T200), human CD3 antigen amine-coupled on CM5 chip, 1:1 fit).
T3 construct: also called Human CD3ϵ
Description: After the detection was completed, data fitting was carried out on the result pattern by adopting Biacore T200 Evaluation Software in a 1:1 binding fitting mode to obtain an equilibrium dissociation constant (KD).

How did the Kd turn out when B2 was run?
Its Kd is 5.77 nM.

Which Kd does the source give for B5 here?
The Kd was 3.1 nM.

How did the Kd turn out when B9 was run?
The Kd was 1980 nM.
